Here are results for 5 molecules from patent publication US20200102347A1 (AUCTUS BIOLOGIES, published 2020).

No end group written: not given here. *: point of attachment. RhodamineB = CCN(CC)c1ccc2c(-c3ccccc3C(=O)*)c3ccc(=[N+](CC)CC)cc-3oc2c1

The target of assay [1] is T1, PDGF-β dimer (recombinant, purified and refolded mature PDGF-β) (Homo sapiens (Human), UniProt P01127 82-190).
T1 construct: also called mature PDGF-β dimer
Put plainly: fluorescence anisotropy; 100 nM FITC-labeled RPtag large double mutant, unlabeled PDGF-β dimer titrated, 1 h at room temperature.
Procedure: After 1 h incubation at room temperature, fluorescence anisotropy was measured, and the resultant curves were fit to a standard binding equation.

The next assay concerns the target T2, RPtag(small) Nd2, Cd4 (Thermoanaerobacter tengcongensis).
T2 peptide: RhodamineB-KIPNFIPAELKLITK
The experiment in a line: fluorescence anisotropy, 2 nM rhodamine Nd2Cd4.

The target of assay [2] is T3, MaturePDGF-β_NterminalPeptide.
T3 construct: an N-terminal G was added and is left out of the numbering; also called PDGF-β peptide
T3 peptide: RhodamineB-GSLGSLTIAEPAMIAE
The experiment in a line: fluorescence anisotropy, 20 nM rhodamine PDGF-β N-terminal peptide. Background: In fluorescence polarisation assays a small probe gives low polarisation when free and higher when bound to something large.
Procedure: (§1) After the incubation, fluorescence anisotropy was measured, and the resultant curves were fit with the equation f=y0+(ymax−y0)*(Ptot+x+Kd−sqrt((Ptot+x+Kd)\hat{ }2−4*Ptot*x))/(2*Ptot), where y0 is the baseline anisotropy, ymax is the maximum anisotropy, Ptot is the fixed concentration of labeled peptide used, x is the variable concentration of protein used, and Kd is the measured Kd. […] Buffer was 50 mM Tris pH 8.0, 0.005% Tween20.

Assay [3] has as its target T4, NativeRPtag(large)_with_Tags_and_Cys (Thermoanaerobacter tengcongensis).
T4 construct: Unlabeled in anisotropy assays; coupled through the engineered N-terminal Cys to SulfoLink agarose or maleimide plates in column, pull-down and ELISA assays
T4 chain: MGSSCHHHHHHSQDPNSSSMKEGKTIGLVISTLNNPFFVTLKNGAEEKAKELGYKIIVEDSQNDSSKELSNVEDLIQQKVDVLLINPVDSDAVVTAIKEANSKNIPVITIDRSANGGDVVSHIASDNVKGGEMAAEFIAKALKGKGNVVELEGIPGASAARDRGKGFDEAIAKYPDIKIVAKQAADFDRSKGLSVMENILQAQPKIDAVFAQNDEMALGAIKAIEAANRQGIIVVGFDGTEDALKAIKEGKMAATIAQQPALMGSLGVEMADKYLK
The experiment in a line: fluorescence anisotropy; NaCl (3M).

Assay [4] has as its target T4, NativeRPtag(large)_with_Tags_and_Cys. The experiment in a line: fluorescence anisotropy; DMSO (20%).
For assay [5] the target is unchanged. Put plainly: calculated from koff and Kd; 50 mM Tris pH 8.0, 0.005% Tween 20, no additive.
Assay [6] shares this target. The experiment in a line: fluorescence anisotropy; CaCl2 (3M).
Assay [7] shares this target. The experiment in a line: fluorescence anisotropy; acetone (20%).
Assay [8] has the same target. The experiment in a line: competition fluorescence anisotropy; 1 µM RPtag large and 1 µM rhodamine PDGF-β N-terminal peptide (the displaced ligand), unlabeled Nd2,p5a,e18a titrated, 1 h; 50 mM Tris pH 8.0, 0.005% Tween20.
Procedure: The curves were fit with the equation f=y0+(ymax−y0)*(Ptot+x+Kd−sqrt((Ptot+x+Kd)\hat{ }2−4*Ptot*x))/(2*Ptot), where y0 is the baseline anisotropy, ymax is the maximum anisotropy, Ptot is the fixed concentration of labeled peptide used, x is the variable concentration of protein used, and Kd is the measured Kd. […] The curves were fit empirically to a 4 parameter logistic regression. In both cases, the buffer was 50 mM Tris pH 8.0, 0.005% Tween20. Curves were fit in 4 independent trials each, and the data was averaged for display. Points are mean±SEM (n=3).
For assay [9] the target is unchanged. Put plainly: fluorescence anisotropy; ribose (3M).
For assay [10] the target is unchanged. The experiment in a line: fluorescence anisotropy; BME (10%).
For assay [11] the target is unchanged. Put plainly: fluorescence anisotropy; NH4SO4 (3M).
For assay [12] the target is unchanged. Put plainly: fluorescence anisotropy; EtOH (20%).
Assay [13] has the same target. The experiment in a line: fluorescence anisotropy; sorbitol (3M).
Assay [14] shares this target. The experiment in a line: fluorescence anisotropy; MeOH (20%).
Assay [15] shares this target. Put plainly: fluorescence anisotropy; MnSO4 (10 mM).
Assay [16] shares this target. Put plainly: fluorescence anisotropy; No Additive; No Additive; 100 mM Tris pH 8.0, 0.005% Tween 20 (Table 3).
Assay [17] has the same target. The experiment in a line: fluorescence anisotropy; 50 mM Tris pH 8.0, 0.005% Tween 20, no additive.
The target is the same in assay [18]. Put plainly: fluorescence anisotropy; KCl (3M).
Assay [19] shares this target. Put plainly: fluorescence anisotropy; MgCl2 (3M).
For assay [20] the target is unchanged. The experiment in a line: fluorescence anisotropy; glycerol (20%).
Assay [21] has the same target. The experiment in a line: fluorescence anisotropy; NiCl2 (100 mM).
The target is the same in assay [22]. The experiment in a line: fluorescence anisotropy; DTT (100 mM).
Assay [23] shares this target. The experiment in a line: fluorescence anisotropy; Tween20 (2%).
The target is the same in assay [24]. Put plainly: fluorescence anisotropy, competitor chase; 50 mM Tris pH 8.0, 0.005% Tween 20, no additive.
Assay [25] shares this target. Put plainly: fluorescence anisotropy; TritonX-100 (2%).
The target is the same in assay [26]. Put plainly: fluorescence anisotropy; PG (50%).
Assay [27] shares this target. Put plainly: immobilized RPtag(large) column; bound in 3 M NaCl, eluted with 3 M imidazole.
Procedure: Briefly, columns, as described above, were first equilibrated with 10 mL 100 mM Tris pH 8.0, 3 M NaCl, 0.005% Tween20. […] The column was then washed with 10 mL of the same buffer. Finally, bound target molecules were eluted with 10 mL of 100 mM Tris pH 8.0, 3 M imidazole, 0.005% Tween20.
The target is the same in assay [28]. The experiment in a line: calculated from koff and Kd; no additive; calculated in the text from koff and Kd.
Assay [29] shares this target. The experiment in a line: fluorescence anisotropy, association kinetics.
A further assay deals with T5, Bovine Serum Albumin (bovine, UniProt P02769 25-607).
T5 construct: also called BSA
T5 sequence (P02769 25-607 limits assumed): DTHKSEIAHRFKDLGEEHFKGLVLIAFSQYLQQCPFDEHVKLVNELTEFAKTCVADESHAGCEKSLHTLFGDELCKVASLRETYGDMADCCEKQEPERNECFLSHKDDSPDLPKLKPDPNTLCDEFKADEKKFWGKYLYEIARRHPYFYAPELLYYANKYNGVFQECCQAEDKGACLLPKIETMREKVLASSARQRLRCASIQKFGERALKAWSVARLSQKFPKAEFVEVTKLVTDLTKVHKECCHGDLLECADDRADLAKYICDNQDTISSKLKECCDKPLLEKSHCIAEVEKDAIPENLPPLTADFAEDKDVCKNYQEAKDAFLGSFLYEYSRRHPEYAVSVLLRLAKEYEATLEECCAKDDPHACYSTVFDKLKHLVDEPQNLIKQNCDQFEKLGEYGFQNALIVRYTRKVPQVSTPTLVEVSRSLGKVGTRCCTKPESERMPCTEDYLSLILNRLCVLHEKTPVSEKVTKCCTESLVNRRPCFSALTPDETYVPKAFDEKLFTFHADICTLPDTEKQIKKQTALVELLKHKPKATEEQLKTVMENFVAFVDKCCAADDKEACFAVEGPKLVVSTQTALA
The experiment in a line: fluorescence anisotropy; 1 nM rhodamine native RPtag (small), BSA titrated.

Assay [30] concerns the target T4, NativeRPtag(large)_with_Tags_and_Cys. The experiment in a line: fluorescence anisotropy; No Additive.
Assay [31] shares this target. The experiment in a line: fluorescence anisotropy, chase with 0.1 mM unlabeled native RPtag small, first order fit; no additive; first order fit of the dissociation traces (n=15).
Source text: Data processing was done as in panel a, except the red fits were to the single exponential decay equation y=y0+A*exp(−b*t).
Panel e is a graph of the initial rates of the traces represented in d. […] Data are mean±SE (n=3).
The target in a further assay is T6, RPtag(large) f137d (Thermoanaerobacter tengcongensis).
T6 construct: also called F137D RPtag(large)
T6 chain: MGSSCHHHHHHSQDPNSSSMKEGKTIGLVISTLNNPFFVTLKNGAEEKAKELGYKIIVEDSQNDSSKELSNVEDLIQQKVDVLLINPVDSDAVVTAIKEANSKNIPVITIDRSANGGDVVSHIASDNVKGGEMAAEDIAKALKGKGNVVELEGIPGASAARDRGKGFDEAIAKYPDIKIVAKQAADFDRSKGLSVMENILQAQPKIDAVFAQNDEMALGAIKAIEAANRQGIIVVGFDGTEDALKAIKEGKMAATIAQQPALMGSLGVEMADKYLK
Put plainly: fluorescence anisotropy (FIG. 14).

T1 sequence (P01127 82-190): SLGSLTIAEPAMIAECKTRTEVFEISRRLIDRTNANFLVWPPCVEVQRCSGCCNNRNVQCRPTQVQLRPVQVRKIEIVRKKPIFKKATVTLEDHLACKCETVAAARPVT
Procedure for Bovine Serum Albumin: Kd's were calculated according to the equation f=y0+(ymax−y0)*(Ptot+x+Kd−sqrt((Ptot+x+Kd)\hat{ }2−4*Ptot*x))/(2*Ptot), where y0 is the baseline anisotropy, ymax is the maximum anisotropy, Ptot is the fixed concentration of labeled peptide used, x is the variable concentration of protein used, and Kd is the measured Kd.
Procedure for RPtag(large) f137d: Resultant curves were fit with the equation f=y0+(ymax−y0)*(Ptot+x+Kd−sqrt((Ptot+x+Kd)\hat{ }2−4*Ptot*x))/(2*Ptot), where y0 is the baseline anisotropy, ymax is the maximum anisotropy, Ptot is the fixed concentration of labeled peptide used, x is the variable concentration of protein used, and Kd is the measured Kd. […] Buffer was 50 mM Tris pH 8.0, 0.005% tween20.
Procedure for RPtag(small) Nd2, Cd4: as §1

B1: RPtag(large) H122L, A253R double mutant (designed binder)
chain: MGSSCHHHHHHSQDPNSSSMKEGKTIGLVISTLNNPFFVTLKNGAEEKAKELGYKIIVEDSQNDSSKELSNVEDLIQQKVDVLLINPVDSDAVVTAIKEANSKNIPVITIDRSANGGDVVSLIASDNVKGGEMAAEFIAKALKGKGNVVELEGIPGASAARDRGKGFDEAIAKYPDIKIVAKQAADFDRSKGLSVMENILQAQPKIDAVFAQNDEMALGAIKAIEAANRQGIIVVGFDGTEDALKAIKEGKMRATIAQQPALMGSLGVEMADKYLK
notes: Unlabeled against the rhodamine peptides; also called RPtag (large) h1221, a253r; double mutant RPtag(large)
As usually defined, the Kd is a measure of binding affinity in units of concentration. On to B1, for which the dissociation constant Kd amounted to 75 nM in assay [1]; 3.1 nM in the assay with RPtag(small) Nd2, Cd4; 1500 nM in assay [2].

B2: RPtag(small) Nd2, p5a, e18a (peptide)
peptide: RhodamineB-KIANFIPAELKLITKANVQ
modifications: also: also used unlabeled as competitor
notes: Rhodamine labeled in the Kd assays; also called RPtag(small) (tight)
Usually kon stands for a measure of how fast the partners come together. What is called koff is a measure of how fast the partners let go of each other. As to B2, the dissociation constant (Kd) in [3] was under 0.001 nM; in [4], 0.023 nM; in assay [6], 150 nM; in assay [7], 0.019 nM; in [9], under 0.001 nM; in assay [10], 6.7 nM. The Kd in assay [11] was 44 nM; in assay [12], 0.1 nM; in assay [13] it was under 0.001 nM; in assay [14] it was 0.056 nM; in assay [15], 22 nM; in assay [16], 0.037 nM. In addition, the equilibrium dissociation constant (Kd) is 0.047 nM in [17]; 0.011 nM in assay [18]; 350 nM in assay [19]; under 0.001 nM in assay [20]; 2.2 nM in [21]; 0.073 nM in assay [22]. For the same molecule, the equilibrium dissociation constant (Kd) in assay [23] worked out at 4.7 nM; in assay [25], 0.046 nM; in assay [26], 49 nM. Further, in [5], the kon is 4.67e+06 M⁻¹ s⁻¹. Further, the “IC50 (read off the curve)” value in assay [8] was about 500 nM. In assay [24], this molecule showed an off-rate constant (koff) of 0.000217 s⁻¹.

B3: Nterminally_tagged_RPtag(small)Nd8,Cd4(fast)_tagRFP (other)
chain: MGSSPAELKLITKGSENLYFQGGSMVSKGEELIKENMHMKLYMEGTVNNHHFKCTSEGEGKPYEGTQTMRIKVVEGGPLPFAFDILATSFMYGSRTFINHTQGIPDFFKQSFPEGFTWERVTTYEDGGVLTATQDTSLQDGCLIYNVKIRGVNFPSNGPVMQKKTLGWEANTEMLYPADGGLEGRSDMALKLVGGGHLICNFKTTYRSKKPAKNLKMPGVYYVDHRLERIKEADKETYVEQHEVAVARYCDLPSKLGHKLNGSSGHHHHHHHH
notes: also called tagRFP containing an N-terminal RPtag (small) Nd8Cd4 tag
For B3, the binding result in [27] is given as “binds”.

B4: native RPtag(small) (peptide)
peptide: RhodamineB-GEKIPNFIPAELKLITKENVQ
notes: Synthetic peptide
As for B4, the kon in assay [28] was about 767000 M⁻¹ s⁻¹; in assay [5], 717000 M⁻¹ s⁻¹. For the same molecule, the dissociation constant Kd came out at 0.0027 nM in assay [3]; 0.17 nM in [4]; 330 nM in [6]; 0.15 nM in assay [7]; 0.023 nM in [9]; 5.3 nM in [10]. Besides, the equilibrium dissociation constant (Kd) in assay [11] is 1.5 nM; in assay [12], 0.17 nM; in assay [13] it was 2.5 nM; in assay [14] it was 0.11 nM; in assay [30] it was 0.21 nM; in assay [15] it was 160 nM. For the same molecule, the dissociation constant Kd is 0.21 nM in assay [17]; under 0.001 nM in [18]; 124 nM in assay [19]; 0.034 nM in [20]; 3.2 nM in assay [21]; 0.51 nM in assay [22]. Further, the Kd in [23] was determined as 0.49 nM; in assay [25], 0.64 nM; in assay [26], 19 nM. The “Keq (S-S*)” value in assay [29] came to 1.6. Also, the “kf (S to S*)” value in assay [29] was found to be 0.092 min⁻¹. In addition, the “kr (S* to S)” value in [29] amounted to 0.056 min⁻¹. In addition, the binding result with Bovine Serum Albumin is “no binding”. Moreover, the off-rate constant (koff) in assay [31] turned out to be 0.0002 s⁻¹; in assay [24], 0.000152 s⁻¹.

B5: RPtag(small) l14k (peptide)
peptide: RhodamineB-GEKIPNFIPAELKKITKENVQ
notes: also called L14K RPtag(small)
Consider B5, for which, in the assay with RPtag(large) f137d, the binding result was “binds”.
